Test results from PMC7531186 (Journal of the American Chemical Society, 2020).
Like-named read-outs stand apart in the source and are kept apart here.

What was measured:
SPOP ΔBACK^28–337 [1] = biological target: T1, SPOP ΔBACK^28–337 (UniProt O43791 28-337); assay: fluorescence polarisation
SPOP ΔBACK^28–337 [2] = biological target: T1, SPOP ΔBACK^28–337; assay: fluorescence polarisation; remark: listed apart in the source

T1 sequence (O43791 28-337, stated change not applied): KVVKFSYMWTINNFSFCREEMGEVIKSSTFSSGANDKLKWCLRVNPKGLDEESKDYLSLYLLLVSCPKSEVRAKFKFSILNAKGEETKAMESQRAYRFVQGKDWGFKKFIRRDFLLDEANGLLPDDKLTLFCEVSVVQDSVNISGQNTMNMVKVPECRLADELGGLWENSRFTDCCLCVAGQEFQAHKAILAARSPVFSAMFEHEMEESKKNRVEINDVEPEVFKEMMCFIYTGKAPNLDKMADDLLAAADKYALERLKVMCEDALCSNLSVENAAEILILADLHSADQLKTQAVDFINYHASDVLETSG

B1: rhodamine-labeled His-cDAXX^495–740 (domain or fragment, UniProt Q9UER7 495-740, looked up)
chain: SPMSSLQISNEKNLEPGKQISRSSGEQQNKGRIVSPSLLSEEPLAPSSIDAESNGEQPEELTLEEESPVSQLFELEIEALPLDTPSSVETDISSSRKQSEEPFTTVLENGAGMVSSTSFNGGVSPHNWGDSGPPCKKSRKEKKQTGSGPLGNSYVERQRSVHEKNGKKICTLPSPPSPLASLAPVADSSTRVDSPSHGLVTSSLCIPSPARLSQTPHSQPPRPGTCKTSVATQCDPEEIIVLSDSD
modifications: labeled with Rhodamine Red C2 maleimide
B1 was tested, and the Kd (SPOP ΔBACK^28–337 [1]) was 10 µM and the Kd (SPOP ΔBACK^28–337 [2]) was 17 µM.
